{
  "source": "ChEMBL document CHEMBL3244047",
  "about": "“Peptidyl transferase substrate specificity with nonaromatic aminoacyl analogues of puromycin” (J Med Chem, 1978)",
  "key": {"[1]": {"target": "T1, Bacterial 70S ribosome (Bacteria) (UniProt P0A7V0+P60723+P0AG67+P0A7R5+P0A7R9+P0A7S3+P0A7S9+P0AG59+P0ADZ4+P0A7T3+P0AG63+P0A7T7+P0A7U3+P0A7U7+P68679+P0A7V3+P0A7V8+P0A7W1+P02358+P02359+P0A7W7+P0A7X3+P0A7J3+P0A7J7+P0AA10+P0ADY3+P02413+P0ADY7+P0AG44+P0C018+P0A7K6+P0A7L0+P0A7L3+P0AG48+P61175+P0ADZ0+P60624+P68919+P0A7L8+P0A7M2+P0A7M6+P60422+P0AG51+P0A7N1+P0A7M9+P0A7N4+P0A7N9+P0A7P5+P0A7Q1+Q2EEQ2+P0A7Q6+P60438+P62399+P0AG55+P0A7K2)", "test": "Activity of Escherichia coli ribosomal peptidyl transferase using Ac[14C]phe-tRNA as donor substrate assessed as [14C]polyphenylalanine formation after 40 mins by scintillation counting analysis in presence of poly(U) relative to puromycin"}, "[2]": {"target": "T1, Bacterial 70S ribosome (Bacteria)", "test": "Activity of Escherichia coli ribosomal peptidyl transferase using Ac[14C]phe-tRNA as donor substrate assessed as [14C]polyphenylalanine formation at 2 x 10^-4 M after 40 mins by double reciprocal plot analysis in presence of poly(U)"}, "[3]": {"tested_on": "CCCCCCCCSC[C@H](N)C(=O)N[C@H]1[C@@H](O)[C@H](n2cnc3c(N(C)C)ncnc32)O[C@@H]1CO", "test": "(§1) Activity of Escherichia coli ribosomal peptidyl transferase using Ac[14C]phe-tRNA as donor substrate assessed as [14C]polyphenylalanine formation after 40 mins by double reciprocal plot analysis in presence of poly(U)", "settings": "Ribosome"}, "[4]": {"tested_on": "CN(C)c1ncnc2c1ncn2[C@@H]1O[C@H](CO)[C@@H](NC(=O)[C@@H](N)CSCc2ccccc2)[C@H]1O", "test": "as §1", "settings": "Ribosome"}, "[5]": {"tested_on": "CN(C)c1ncnc2c1ncn2[C@@H]1O[C@H](CO)[C@@H](NC(=O)[C@@H](N)CSCCCCCCO)[C@H]1O", "test": "as §1", "settings": "Ribosome"}, "[6]": {"tested_on": "CCCCCCSC[C@H](N)C(=O)N[C@H]1[C@@H](O)[C@H](n2cnc3c(N(C)C)ncnc32)O[C@@H]1CO", "test": "as §1", "settings": "Ribosome"}, "[7]": {"tested_on": "COc1ccc(C[C@H](N)C(=O)N[C@H]2[C@@H](O)[C@H](n3cnc4c(N(C)C)ncnc43)O[C@@H]2CO)cc1", "test": "as §1", "settings": "Ribosome"}, "[8]": {"tested_on": "CCCCSC[C@H](N)C(=O)N[C@H]1[C@@H](O)[C@H](n2cnc3c(N(C)C)ncnc32)O[C@@H]1CO", "test": "as §1", "settings": "Ribosome"}, "[9]": {"tested_on": "CCCCCSC[C@H](N)C(=O)N[C@H]1[C@@H](O)[C@H](n2cnc3c(N(C)C)ncnc32)O[C@@H]1CO", "test": "as §1", "settings": "Ribosome"}, "[10]": {"tested_on": "CCCSC[C@H](N)C(=O)N[C@H]1[C@@H](O)[C@H](n2cnc3c(N(C)C)ncnc32)O[C@@H]1CO", "test": "as §1", "settings": "Ribosome"}},
  "note": "Calls of active or inactive are those of the source. The rule behind the calls is not given here.",
  "data": [
    {"compound": "CCCCCCCCSC[C@H](N)C(=O)N[C@H]1[C@@H](O)[C@H](n2cnc3c(N(C)C)ncnc32)O[C@@H]1CO", "values": [
      {"measurement": "Efficacy", "setting": "[1]", "value": 45.6, "unit": "%"}
    ]},
    {"compound": "CN(C)c1ncnc2c1ncn2[C@@H]1O[C@H](CO)[C@@H](NC(=O)[C@@H](N)CSCc2ccccc2)[C@H]1O", "values": [
      {"measurement": "Efficacy", "setting": "[1]", "value": 17.4, "unit": "%"}
    ]},
    {"compound": "CCC(CC)SC[C@H](N)C(=O)N[C@H]1[C@@H](O)[C@H](n2cnc3c(N(C)C)ncnc32)O[C@@H]1CO", "values": [
      {"measurement": "Activity", "setting": "[2]", "value": "inactive"}
    ]},
    {"compound": "CN(C)c1ncnc2c1ncn2[C@@H]1O[C@H](CO)[C@@H](NC(=O)[C@@H](N)CSC(c2ccccc2)c2ccccc2)[C@H]1O", "values": [
      {"measurement": "Activity", "setting": "[2]", "value": "inactive"}
    ]},
    {"compound": "CCCSC[C@H](N)C(=O)N[C@H]1[C@@H](O)[C@H](n2cnc3c(N(C)C)ncnc32)O[C@@H]1CO", "values": [
      {"measurement": "Efficacy", "setting": "[1]", "value": 44.8, "unit": "%"}
    ]},
    {"compound": "CCCCCCSC[C@H](N)C(=O)N[C@H]1[C@@H](O)[C@H](n2cnc3c(N(C)C)ncnc32)O[C@@H]1CO", "values": [
      {"measurement": "Efficacy", "setting": "[1]", "value": 67.5, "unit": "%"}
    ]},
    {"compound": "Bacterial 70S ribosome (Bacteria) (from UniProt P0A7V0+P60723+P0AG67+P0A7R5+P0A7R9+P0A7S3+P0A7S9+P0AG59+P0ADZ4+P0A7T3+P0AG63+P0A7T7+P0A7U3+P0A7U7+P68679+P0A7V3+P0A7V8+P0A7W1+P02358+P02359+P0A7W7+P0A7X3+P0A7J3+P0A7J7+P0AA10+P0ADY3+P02413+P0ADY7+P0AG44+P0C018+P0A7K6+P0A7L0+P0A7L3+P0AG48+P61175+P0ADZ0+P60624+P68919+P0A7L8+P0A7M2+P0A7M6+P60422+P0AG51+P0A7N1+P0A7M9+P0A7N4+P0A7N9+P0A7P5+P0A7Q1+Q2EEQ2+P0A7Q6+P60438+P62399+P0AG55+P0A7K2)", "values": [
      {"measurement": "Km", "setting": "[3]", "value": 177, "unit": "µM"},
      {"measurement": "Vmax", "setting": "[3]", "value": 1.38, "unit": "pmol/min"},
      {"measurement": "Km", "setting": "[4]", "value": 460, "unit": "µM"},
      {"measurement": "Vmax", "setting": "[4]", "value": 1.36, "unit": "pmol/min"},
      {"measurement": "Km", "setting": "[5]", "value": 166, "unit": "µM"},
      {"measurement": "Vmax", "setting": "[5]", "value": 2.71, "unit": "pmol/min"},
      {"measurement": "Km", "setting": "[6]", "value": 215, "unit": "µM"},
      {"measurement": "Vmax", "setting": "[6]", "value": 2.46, "unit": "pmol/min"},
      {"measurement": "Km", "setting": "[7]", "value": 234, "unit": "µM"},
      {"measurement": "Vmax", "setting": "[7]", "value": 3.99, "unit": "pmol/min"},
      {"measurement": "Km", "setting": "[8]", "value": 395, "unit": "µM"},
      {"measurement": "Vmax", "setting": "[8]", "value": 2.43, "unit": "pmol/min"},
      {"measurement": "Km", "setting": "[9]", "value": 255, "unit": "µM"},
      {"measurement": "Vmax", "setting": "[9]", "value": 2.36, "unit": "pmol/min"},
      {"measurement": "Km", "setting": "[10]", "value": 374, "unit": "µM"},
      {"measurement": "Vmax", "setting": "[10]", "value": 2.86, "unit": "pmol/min"}
    ]},
    {"compound": "CN(C)c1ncnc2c1ncn2[C@@H]1O[C@H](CO)[C@@H](NC(=O)[C@@H](N)CSCCCCCCO)[C@H]1O", "values": [
      {"measurement": "Efficacy", "setting": "[1]", "value": 95.6, "unit": "%"}
    ]},
    {"compound": "CCCCCSC[C@H](N)C(=O)N[C@H]1[C@@H](O)[C@H](n2cnc3c(N(C)C)ncnc32)O[C@@H]1CO", "values": [
      {"measurement": "Efficacy", "setting": "[1]", "value": 54.3, "unit": "%"}
    ]},
    {"compound": "CCCCSC[C@H](N)C(=O)N[C@H]1[C@@H](O)[C@H](n2cnc3c(N(C)C)ncnc32)O[C@@H]1CO", "values": [
      {"measurement": "Efficacy", "setting": "[1]", "value": 36.2, "unit": "%"}
    ]}
  ]
}
